Test results as given in patent US5985836A, “Alpha-1 proteinase inhibitor binding peptides” (Bayer Corporation, priority 1998, dated 1999).
Values belong to the substance of their own block, whether it stands above or below them. Ends that are not written are not given here.

Assays:
A1PI [1] = biological target: T1, A1PI (Homo sapiens, UniProt P01009); test: A1PI binding on peptide-resin column, injection of 1 mg A1PI in equilibration buffer; details: 1 mg A1PI in equilibration buffer; for Percent A1PI Eluted by Fraction Based on Absorbance at 280 nm, 1M NaCl / Percent A1PI Eluted by Fraction Based on Absorbance at 280 nm, 2% Acetic Acid / Percent A1PI Eluted by Fraction Based on Absorbance at 280 nm, Flowthrough: 4° C.; for Percent A1PI Eluted by Fraction, 1M NaCl / Percent A1PI Eluted by Fraction, 2% Acetic Acid / Percent A1PI Eluted by Fraction, Flowthrough: 20° C.
T1 construct: Human plasma is currently the only approved source of therapeutic AlPI
T1 sequence (P01009 25-418): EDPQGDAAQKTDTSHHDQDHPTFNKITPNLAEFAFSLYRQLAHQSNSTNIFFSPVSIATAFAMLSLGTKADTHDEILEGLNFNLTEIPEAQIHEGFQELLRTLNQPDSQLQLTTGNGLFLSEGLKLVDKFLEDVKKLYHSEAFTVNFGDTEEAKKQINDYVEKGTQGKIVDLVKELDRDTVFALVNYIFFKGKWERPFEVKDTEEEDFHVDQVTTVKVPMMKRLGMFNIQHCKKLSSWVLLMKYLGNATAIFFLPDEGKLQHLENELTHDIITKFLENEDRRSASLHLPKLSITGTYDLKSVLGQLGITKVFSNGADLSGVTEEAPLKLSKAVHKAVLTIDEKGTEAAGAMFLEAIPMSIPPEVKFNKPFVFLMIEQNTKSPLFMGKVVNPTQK
How it was run: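 Percent of total eluted A1PI per fraction (flowthrough, NaCl steps, 2% acetic acid) determined by A280 integration or immunonephelometry. Columns of peptide-derivatized A-Totda-Toyopearl resin (0.1 mmole/g) received 1 mg A1PI at 4 °C or 20 °C, flow 865 or 523 μl/min.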

A1PI [2] = biological target: T1, A1PI; test: A1PI purification from 5 mg hSA + 1 mg A1PI on peptide column, A1PI mass balance; assay type: binding; details: A1PI, 5 mg hSA + 1 mg A1PI; for Percent Eluted by Fraction, 1M NaCl / Percent Eluted by Fraction, 2% Ac. Acid / Percent Eluted by Fraction, 3M NaCl / Percent Eluted by Fraction, Flow: relative to total eluted
How it was run: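 Mass balance by immunonephelometry of fractions from step elutions (1M NaCl, 3M NaCl, 2% acetic acid, neutralised with Tris) at 865 μl/min. Sample was a mixture of 1 mg A1PI and 5 mg hSA held 10 min on peptide-derivatised Toyopearl columns (0.1 mmole/g) at 4 °C or 20 °C.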

A1PI [3] = biological target: T1, A1PI; test: Purification of A1PI from Effluent II+III on peptide column, A1PI mass balance; assay type: binding; details: A1PI, 1 ml Eff. II+III, 4° C.; for Mass Protein per Eluate Fraction, 1M NaCl / Mass Protein per Eluate Fraction, 2% Acetic Acid / Mass Protein per Eluate Fraction, Flow: * as in Tables 4, 5 (below detection limit)
How it was run: (§1)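 Feed: 1 ml Eff. II+III (20% EtOH, 20-25 mg/ml hSA, ~1 mg/ml A1PI). 10 min residence, then 865 μl/min; steps 1M NaCl / 3M NaCl / 2% acetic acid; 4° C. Mass balance per fraction.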

[4] = biological target: T2, apolipoprotein alpha-1 (Apo A-1) (Homo sapiens, UniProt P02647); test: Purification from Effluent II+III, Apo A-1 mass balance; assay type: binding; details: 1 ml Eff. II+III, 4° C.; for Mass Protein per Eluate Fraction, 2% Acetic Acid: * as in Tables 4, 5 (below detection limit)
T2 construct: Eff; II+III is a process intermediate in the Cohn plasma fractionation process; tissue Bayer Corporation (Clayton, N.C.); host or cells: plasma fraction: Cohn Effluent II+III
T2 sequence (P02647 19-267): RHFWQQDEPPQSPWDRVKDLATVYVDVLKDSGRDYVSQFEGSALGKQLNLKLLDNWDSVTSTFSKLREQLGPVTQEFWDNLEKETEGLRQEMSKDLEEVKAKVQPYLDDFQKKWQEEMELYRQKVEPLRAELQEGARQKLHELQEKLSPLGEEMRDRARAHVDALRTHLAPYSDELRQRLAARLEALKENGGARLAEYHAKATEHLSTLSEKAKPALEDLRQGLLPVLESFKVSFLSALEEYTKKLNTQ
How it was run: as §1

Immunoglobulin A (IgA) = test: Purification from Effluent II+III, IgA mass balance; assay type: binding, human; details: 1 ml Eff. II+III, 4° C.; for Mass Protein per Eluate Fraction, 1M NaCl / Mass Protein per Eluate Fraction, 2% Acetic Acid / Mass Protein per Eluate Fraction, Flow: * as in Tables 4, 5 (below detection limit)
How it was run: as §1

Immunoglobulin G (IgG) = test: Purification from Effluent II+III, IgG mass balance; assay type: binding, human; details: 1 ml Eff. II+III, 4° C.
How it was run: as §1

A1PI [5] = biological target: T1, A1PI; test: Capture and elution of active A1PI with 2M urea buffer (elastase inhibition activity assay and immunonephelometry); assay type: binding; details: 4° C.; for Mass A1PI in Urea Eluate (mg), Activity / Mass A1PI in Urea Eluate (mg), Nephelometry: 1 mg A1PI, eluted with 2M urea, pH 6; for Mass A1PI in Urea Eluate (mg), Activity: elastase inhibition activity assay; for Mass A1PI in Urea Eluate (mg), Nephelometry: immunonephelometry; for Specific Activity: mass of A1PI by activity assay relative to immunonephelometry, urea eluate
A1PI [6] = biological target: T1, A1PI; test: A1PI yield from dialyzed (aqueous) Effluent II+III; assay type: binding; details: 4° C.
Experimental: Effluent II+III was dialyzed against equilibration buffer at 4° C. to remove the ethanol using a 15,000 molecular weight cut-off membrane. Nephelometry of the Eff. […] A portion of the identified sequences were assayed under the same conditions applied for neat Eff. II+III at 4° C. […] II+III compared to the neat, ethanol-containing feed. The binding strength differed for the aqueous feed as more AlPI eluted in 1M NaCl for the aqueous feed. The AlPI eluted in the 1M NaCl fractions was not as enriched as that eluted in the acid eluates.

[7] = 20° C., * Below detection limit
[8] = * as in Tables 4, 5 (below detection limit)
[9] = 1 ml dialyzed Eff. II+III (ethanol removed)
[10] = A1PI, 1 ml dialyzed Eff. II+III

Percent A1PI Eluted by Fraction Based on Absorbance at 280 nm, 1M NaCl (A1PI [1]): 57%
Percent A1PI Eluted by Fraction Based on Absorbance at 280 nm, 2% Acetic Acid (A1PI [1]): 43%
Percent A1PI Eluted by Fraction Based on Absorbance at 280 nm, Flowthrough (A1PI [1]): 0%
Percent A1PI Eluted by Fraction, 1M NaCl (A1PI [1]): 64%
Percent A1PI Eluted by Fraction, 2% Acetic Acid (A1PI [1]): 36%
Percent A1PI Eluted by Fraction, Flowthrough (A1PI [1]): 0%
Mass Protein per Eluate Fraction, 1M NaCl (A1PI [2]; 4° C., * Below detection limit): 0.27 mg
Mass Protein per Eluate Fraction, 2% Ac. Acid (A1PI [2]; 4° C., * Below detection limit): 0.64 mg
Mass Protein per Eluate Fraction, 3M NaCl (A1PI [2]; 4° C., * Below detection limit): 0.04 mg
Mass Protein per Eluate Fraction, Flow (A1PI [2]; 4° C., * Below detection limit): 0.03 mg
Percent Eluted by Fraction, 1M NaCl (A1PI [2]; 4° C.): 27%
Percent Eluted by Fraction, 2% Ac. Acid (A1PI [2]; 4° C.): 66%
Percent Eluted by Fraction, 3M NaCl (A1PI [2]; 4° C.): 4%
Percent Eluted by Fraction, Flow (A1PI [2]; 4° C.): 3%
Mass Protein per Eluate Fraction, 1M NaCl (A1PI [2]; [7]): 0.11 mg
Mass Protein per Eluate Fraction, 2% Ac. Acid (A1PI [2]; [7]): 0.44 mg
Mass Protein per Eluate Fraction, Flow (A1PI [2]; [7]): 0.29 mg
Percent Eluted by Fraction, 1M NaCl (A1PI [2]; 20° C.): 12%
Percent Eluted by Fraction, 2% Ac. Acid (A1PI [2]; 20° C.): 53%
Percent Eluted by Fraction, 3M NaCl (A1PI [2]; 20° C.): 0%
Percent Eluted by Fraction, Flow (A1PI [2]; 20° C.): 35%
Percent Eluted by Fraction, 1M NaCl (A1PI [3]): 5%
Percent Eluted by Fraction, 2% Acetic Acid (A1PI [3]): 80%
Percent Eluted by Fraction, 3M NaCl (A1PI [3]): 0%
Percent Eluted by Fraction, Flow (A1PI [3]): 15%
Mass Protein per Eluate Fraction, 1M NaCl (A1PI [3]): 0.05 mg
Mass Protein per Eluate Fraction, 2% Acetic Acid (A1PI [3]): 0.81 mg
Mass Protein per Eluate Fraction, Flow (A1PI [3]): 0.15 mg
Percent Eluted by Fraction, 1M NaCl [4]: 0%
Percent Eluted by Fraction, 2% Acetic Acid [4]: 100%
Percent Eluted by Fraction, 3M NaCl [4]: 0%
Percent Eluted by Fraction, Flow [4]: 0%
Mass Protein per Eluate Fraction, 2% Acetic Acid [4]: 0.37 mg
Mass A1PI in Urea Eluate (mg), Activity (A1PI [5]): 0.67 mg
Mass A1PI in Urea Eluate (mg), Nephelometry (A1PI [5]): 0.80 mg
Specific Activity (A1PI [5]): 0.84 mg/mg
Substance: RFIYYT
Percent Eluted by Fraction, 1M NaCl (Immunoglobulin A (IgA)): 31%
Percent Eluted by Fraction, 2% Acetic Acid (Immunoglobulin A (IgA)): 38%
Percent Eluted by Fraction, 3M NaCl (Immunoglobulin A (IgA)): 0%
Percent Eluted by Fraction, Flow (Immunoglobulin A (IgA)): 31%
Mass Protein per Eluate Fraction, 1M NaCl (Immunoglobulin A (IgA)): 0.10 mg
Mass Protein per Eluate Fraction, 2% Acetic Acid (Immunoglobulin A (IgA)): 0.12 mg
Mass Protein per Eluate Fraction, Flow (Immunoglobulin A (IgA)): 0.10 mg
Percent Eluted by Fraction, 1M NaCl (Immunoglobulin G (IgG)): 7%
Percent Eluted by Fraction, 2% Acetic Acid (Immunoglobulin G (IgG)): 7%
Percent Eluted by Fraction, 3M NaCl (Immunoglobulin G (IgG)): 0%
Percent Eluted by Fraction, Flow (Immunoglobulin G (IgG)): 86%
Mass Protein per Eluate Fraction, 1M NaCl (Immunoglobulin G (IgG); [8]): 0.02 mg
Mass Protein per Eluate Fraction, 2% Acetic Acid (Immunoglobulin G (IgG); [8]): 0.02 mg
Mass Protein per Eluate Fraction, Flow (Immunoglobulin G (IgG); [8]): 0.23 mg

Percent A1PI Eluted by Fraction Based on Absorbance at 280 nm, 1M NaCl (A1PI [1]): 40%
Percent A1PI Eluted by Fraction Based on Absorbance at 280 nm, 2% Acetic Acid (A1PI [1]): 60%
Percent A1PI Eluted by Fraction Based on Absorbance at 280 nm, Flowthrough (A1PI [1]): 0%
Percent A1PI Eluted by Fraction, 1M NaCl (A1PI [1]): 35%
Percent A1PI Eluted by Fraction, 2% Acetic Acid (A1PI [1]): 65%
Percent A1PI Eluted by Fraction, Flowthrough (A1PI [1]): 0%
Mass Protein per Eluate Fraction, 1M NaCl (A1PI [2]; 4° C., * Below detection limit): 0.27 mg
Mass Protein per Eluate Fraction, 2% Ac. Acid (A1PI [2]; 4° C., * Below detection limit): 0.71 mg
Percent Eluted by Fraction, 1M NaCl (A1PI [2]; 4° C.): 28%
Percent Eluted by Fraction, 2% Ac. Acid (A1PI [2]; 4° C.): 72%
Percent Eluted by Fraction, 3M NaCl (A1PI [2]; 4° C.): 0%
Percent Eluted by Fraction, Flow (A1PI [2]; 4° C.): 0%
Mass Protein per Eluate Fraction, 1M NaCl (A1PI [2]; [7]): 0.21 mg
Mass Protein per Eluate Fraction, 2% Ac. Acid (A1PI [2]; [7]): 0.50 mg
Mass Protein per Eluate Fraction, Flow (A1PI [2]; [7]): 0.22 mg
Percent Eluted by Fraction, 1M NaCl (A1PI [2]; 20° C.): 23%
Percent Eluted by Fraction, 2% Ac. Acid (A1PI [2]; 20° C.): 53%
Percent Eluted by Fraction, 3M NaCl (A1PI [2]; 20° C.): 0%
Percent Eluted by Fraction, Flow (A1PI [2]; 20° C.): 24%
Percent Eluted by Fraction, 1M NaCl (A1PI [3]): 9%
Percent Eluted by Fraction, 2% Acetic Acid (A1PI [3]): 66%
Percent Eluted by Fraction, 3M NaCl (A1PI [3]): 0%
Percent Eluted by Fraction, Flow (A1PI [3]): 25%
Mass Protein per Eluate Fraction, 1M NaCl (A1PI [3]): 0.07 mg
Mass Protein per Eluate Fraction, 2% Acetic Acid (A1PI [3]): 0.50 mg
Mass Protein per Eluate Fraction, Flow (A1PI [3]): 0.19 mg
Percent Eluted by Fraction, 1M NaCl [4]: 0%
Percent Eluted by Fraction, 2% Acetic Acid [4]: 100%
Percent Eluted by Fraction, 3M NaCl [4]: 0%
Percent Eluted by Fraction, Flow [4]: 0%
Mass Protein per Eluate Fraction, 2% Acetic Acid [4]: 0.39 mg
Mass A1PI per Eluate Fraction, 1M NaCl (A1PI [6]; [9]): 0.15 mg
Mass A1PI per Eluate Fraction, 2% Acetic Acid (A1PI [6]; [9]): 0.25 mg
Mass A1PI per Eluate Fraction, Flowthrough (A1PI [6]; [9]): 0.21 mg
Percent Eluted by Fraction, 1M NaCl (A1PI [6]; [10]): 24%
Percent Eluted by Fraction, 2% Acetic Acid (A1PI [6]; [10]): 41%
Percent Eluted by Fraction, Flowthrough (A1PI [6]; [10]): 35%
Mass A1PI in Urea Eluate (mg), Activity (A1PI [5]): 0.67 mg
Mass A1PI in Urea Eluate (mg), Nephelometry (A1PI [5]): 0.79 mg
Specific Activity (A1PI [5]): 0.86 mg/mg
Substance: RYRIFI
Percent Eluted by Fraction, 1M NaCl (Immunoglobulin A (IgA)): 17%
Percent Eluted by Fraction, 2% Acetic Acid (Immunoglobulin A (IgA)): 60%
Percent Eluted by Fraction, 3M NaCl (Immunoglobulin A (IgA)): 0%
Percent Eluted by Fraction, Flow (Immunoglobulin A (IgA)): 22%
Mass Protein per Eluate Fraction, 1M NaCl (Immunoglobulin A (IgA)): 0.06 mg
Mass Protein per Eluate Fraction, 2% Acetic Acid (Immunoglobulin A (IgA)): 0.23 mg
Mass Protein per Eluate Fraction, Flow (Immunoglobulin A (IgA)): 0.08 mg
Percent Eluted by Fraction, 1M NaCl (Immunoglobulin G (IgG)): 0%
Percent Eluted by Fraction, 2% Acetic Acid (Immunoglobulin G (IgG)): 0%
Percent Eluted by Fraction, 3M NaCl (Immunoglobulin G (IgG)): 0%
Percent Eluted by Fraction, Flow (Immunoglobulin G (IgG)): 100%
Mass Protein per Eluate Fraction, Flow (Immunoglobulin G (IgG); [8]): 0.24 mg
